Square brackets hold non-standard residues; d marks the D form. Aib = CC(C)(N)C(=O)O
T1: human GLP-2 receptor (hGLP2-R) (human, UniProt O95838 1-553)
T1 sequence (looked up): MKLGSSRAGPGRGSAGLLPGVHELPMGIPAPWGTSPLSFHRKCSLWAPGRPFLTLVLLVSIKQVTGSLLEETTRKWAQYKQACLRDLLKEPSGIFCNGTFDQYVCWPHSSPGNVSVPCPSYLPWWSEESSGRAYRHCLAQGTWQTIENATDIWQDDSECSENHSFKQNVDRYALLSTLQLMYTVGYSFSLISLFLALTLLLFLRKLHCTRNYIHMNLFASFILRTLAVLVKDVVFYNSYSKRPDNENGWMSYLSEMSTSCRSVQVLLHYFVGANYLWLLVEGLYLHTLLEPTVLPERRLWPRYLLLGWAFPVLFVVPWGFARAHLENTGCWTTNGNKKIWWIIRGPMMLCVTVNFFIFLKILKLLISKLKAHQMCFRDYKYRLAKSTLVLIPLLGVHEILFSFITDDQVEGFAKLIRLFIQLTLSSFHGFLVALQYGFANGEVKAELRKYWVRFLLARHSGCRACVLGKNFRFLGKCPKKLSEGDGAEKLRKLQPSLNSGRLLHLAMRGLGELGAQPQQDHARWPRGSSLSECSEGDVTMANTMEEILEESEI


Tests used:
[1] = target: human glucagon-like peptide 1 receptor (GLP-1R) (human, UniProt P43220 24-463); assay: cell-based or functional assay
[2] = target: T1, human GLP-2 receptor (hGLP2-R); assay: cell-based or functional assay

Binder	EC50 GLP-1 (nM); cAMP AlphaScreen, HEK293 cells expressing human GLP-1R [1] [nM]	EC50 GLP-2 (nM); cAMP AlphaScreen, HEK293 cells expressing human GLP-2R [2] [nM]
H-H[Aib]EGSFTSELATILDEQAARDFIAWLYRHKITD-OH (SMILES CC[C@H](C)[C@H](NC(=O)[C@H](Cc1ccccc1)NC(=O)[C@H](CC(=O)O)NC(=O)[C@H](CCCNC(=N)N)NC(=O)[C@H](C)NC(=O)[C@H](C)NC(=O)[C@H](CCC(N)=O)NC(=O)[C@H](CCC(=O)O)NC(=O)[C@H](CC(=O)O)NC(=O)[C@H](CC(C)C)NC(=O)[C@@H](NC(=O)[C@@H](NC(=O)[C@H](C)NC(=O)[C@H](CC(C)C)NC(=O)[C@H](CCC(=O)O)NC(=O)[C@H](CO)NC(=O)[C@@H](NC(=O)[C@H](Cc1ccccc1)NC(=O)[C@H](CO)NC(=O)CNC(=O)[C@H](CCC(=O)O)NC(=O)C(C)(C)NC(=O)[C@@H](N)Cc1c[nH]cn1)[C@@H](C)O)[C@@H](C)O)[C@@H](C)CC)C(=O)N[C@@H](C)C(=O)N[C@@H](Cc1c[nH]c2ccccc12)C(=O)N[C@@H](CC(C)C)C(=O)N[C@@H](Cc1ccc(O)cc1)C(=O)N[C@@H](CCCNC(=N)N)C(=O)N[C@@H](Cc1c[nH]cn1)C(=O)N[C@@H](CCCCN)C(=O)N[C@H](C(=O)N[C@H](C(=O)N[C@@H](CC(=O)O)C(=O)O)[C@@H](C)O)[C@@H](C)CC) [Compound 30]	0.1	0.034
H-H[Aib]EGSFTSELATILDGKAARDFIAWLIAHKITD-OH (SMILES CC[C@H](C)[C@H](NC(=O)[C@H](CC(C)C)NC(=O)[C@H](Cc1c[nH]c2ccccc12)NC(=O)[C@H](C)NC(=O)[C@@H](NC(=O)[C@H](Cc1ccccc1)NC(=O)[C@H](CC(=O)O)NC(=O)[C@H](CCCNC(=N)N)NC(=O)[C@H](C)NC(=O)[C@H](C)NC(=O)[C@H](CCCCN)NC(=O)CNC(=O)[C@H](CC(=O)O)NC(=O)[C@H](CC(C)C)NC(=O)[C@@H](NC(=O)[C@@H](NC(=O)[C@H](C)NC(=O)[C@H](CC(C)C)NC(=O)[C@H](CCC(=O)O)NC(=O)[C@H](CO)NC(=O)[C@@H](NC(=O)[C@H](Cc1ccccc1)NC(=O)[C@H](CO)NC(=O)CNC(=O)[C@H](CCC(=O)O)NC(=O)C(C)(C)NC(=O)[C@@H](N)Cc1c[nH]cn1)[C@@H](C)O)[C@@H](C)O)[C@@H](C)CC)[C@@H](C)CC)C(=O)N[C@@H](C)C(=O)N[C@@H](Cc1c[nH]cn1)C(=O)N[C@@H](CCCCN)C(=O)N[C@H](C(=O)N[C@H](C(=O)N[C@@H](CC(=O)O)C(=O)O)[C@@H](C)O)[C@@H](C)CC) [Compound 31]	0.02	0.078
H-H[Aib]EGTFSSELATILDGKAARDFIAWLIAHKITD-OH (SMILES CC[C@H](C)[C@H](NC(=O)[C@H](CC(C)C)NC(=O)[C@H](Cc1c[nH]c2ccccc12)NC(=O)[C@H](C)NC(=O)[C@@H](NC(=O)[C@H](Cc1ccccc1)NC(=O)[C@H](CC(=O)O)NC(=O)[C@H](CCCNC(=N)N)NC(=O)[C@H](C)NC(=O)[C@H](C)NC(=O)[C@H](CCCCN)NC(=O)CNC(=O)[C@H](CC(=O)O)NC(=O)[C@H](CC(C)C)NC(=O)[C@@H](NC(=O)[C@@H](NC(=O)[C@H](C)NC(=O)[C@H](CC(C)C)NC(=O)[C@H](CCC(=O)O)NC(=O)[C@H](CO)NC(=O)[C@H](CO)NC(=O)[C@H](Cc1ccccc1)NC(=O)[C@@H](NC(=O)CNC(=O)[C@H](CCC(=O)O)NC(=O)C(C)(C)NC(=O)[C@@H](N)Cc1c[nH]cn1)[C@@H](C)O)[C@@H](C)O)[C@@H](C)CC)[C@@H](C)CC)C(=O)N[C@@H](C)C(=O)N[C@@H](Cc1c[nH]cn1)C(=O)N[C@@H](CCCCN)C(=O)N[C@H](C(=O)N[C@H](C(=O)N[C@@H](CC(=O)O)C(=O)O)[C@@H](C)O)[C@@H](C)CC) [Compound 32]	0.038	0.15
H-H[Aib]EGTFTSELATILDEQAARDFINWLIAHKITD-OH (SMILES CC[C@H](C)[C@H](NC(=O)[C@H](CC(C)C)NC(=O)[C@H](Cc1c[nH]c2ccccc12)NC(=O)[C@H](CC(N)=O)NC(=O)[C@@H](NC(=O)[C@H](Cc1ccccc1)NC(=O)[C@H](CC(=O)O)NC(=O)[C@H](CCCNC(=N)N)NC(=O)[C@H](C)NC(=O)[C@H](C)NC(=O)[C@H](CCC(N)=O)NC(=O)[C@H](CCC(=O)O)NC(=O)[C@H](CC(=O)O)NC(=O)[C@H](CC(C)C)NC(=O)[C@@H](NC(=O)[C@@H](NC(=O)[C@H](C)NC(=O)[C@H](CC(C)C)NC(=O)[C@H](CCC(=O)O)NC(=O)[C@H](CO)NC(=O)[C@@H](NC(=O)[C@H](Cc1ccccc1)NC(=O)[C@@H](NC(=O)CNC(=O)[C@H](CCC(=O)O)NC(=O)C(C)(C)NC(=O)[C@@H](N)Cc1c[nH]cn1)[C@@H](C)O)[C@@H](C)O)[C@@H](C)O)[C@@H](C)CC)[C@@H](C)CC)C(=O)N[C@@H](C)C(=O)N[C@@H](Cc1c[nH]cn1)C(=O)N[C@@H](CCCCN)C(=O)N[C@H](C(=O)N[C@H](C(=O)N[C@@H](CC(=O)O)C(=O)O)[C@@H](C)O)[C@@H](C)CC) [Compound 33]	0.004	0.041
H-H[Aib]EGTFSSELATILDEQAARDFIAWLIAHKITD-OH (SMILES CC[C@H](C)[C@H](NC(=O)[C@H](CC(C)C)NC(=O)[C@H](Cc1c[nH]c2ccccc12)NC(=O)[C@H](C)NC(=O)[C@@H](NC(=O)[C@H](Cc1ccccc1)NC(=O)[C@H](CC(=O)O)NC(=O)[C@H](CCCNC(=N)N)NC(=O)[C@H](C)NC(=O)[C@H](C)NC(=O)[C@H](CCC(N)=O)NC(=O)[C@H](CCC(=O)O)NC(=O)[C@H](CC(=O)O)NC(=O)[C@H](CC(C)C)NC(=O)[C@@H](NC(=O)[C@@H](NC(=O)[C@H](C)NC(=O)[C@H](CC(C)C)NC(=O)[C@H](CCC(=O)O)NC(=O)[C@H](CO)NC(=O)[C@H](CO)NC(=O)[C@H](Cc1ccccc1)NC(=O)[C@@H](NC(=O)CNC(=O)[C@H](CCC(=O)O)NC(=O)C(C)(C)NC(=O)[C@@H](N)Cc1c[nH]cn1)[C@@H](C)O)[C@@H](C)O)[C@@H](C)CC)[C@@H](C)CC)C(=O)N[C@@H](C)C(=O)N[C@@H](Cc1c[nH]cn1)C(=O)N[C@@H](CCCCN)C(=O)N[C@H](C(=O)N[C@H](C(=O)N[C@@H](CC(=O)O)C(=O)O)[C@@H](C)O)[C@@H](C)CC) [Compound 2]	0.046	0.034
H-H[Aib]EGTFTSELATILDEQAARDFISWLIAHKITD-OH (SMILES CC[C@H](C)[C@H](NC(=O)[C@H](CC(C)C)NC(=O)[C@H](Cc1c[nH]c2ccccc12)NC(=O)[C@H](CO)NC(=O)[C@@H](NC(=O)[C@H](Cc1ccccc1)NC(=O)[C@H](CC(=O)O)NC(=O)[C@H](CCCNC(=N)N)NC(=O)[C@H](C)NC(=O)[C@H](C)NC(=O)[C@H](CCC(N)=O)NC(=O)[C@H](CCC(=O)O)NC(=O)[C@H](CC(=O)O)NC(=O)[C@H](CC(C)C)NC(=O)[C@@H](NC(=O)[C@@H](NC(=O)[C@H](C)NC(=O)[C@H](CC(C)C)NC(=O)[C@H](CCC(=O)O)NC(=O)[C@H](CO)NC(=O)[C@@H](NC(=O)[C@H](Cc1ccccc1)NC(=O)[C@@H](NC(=O)CNC(=O)[C@H](CCC(=O)O)NC(=O)C(C)(C)NC(=O)[C@@H](N)Cc1c[nH]cn1)[C@@H](C)O)[C@@H](C)O)[C@@H](C)O)[C@@H](C)CC)[C@@H](C)CC)C(=O)N[C@@H](C)C(=O)N[C@@H](Cc1c[nH]cn1)C(=O)N[C@@H](CCCCN)C(=O)N[C@H](C(=O)N[C@H](C(=O)N[C@@H](CC(=O)O)C(=O)O)[C@@H](C)O)[C@@H](C)CC) [Compound 34]	0.005	0.049
H-H[Aib]EGTFTSELATILDEQAARDFINWLKAHKITD-OH (SMILES CC[C@H](C)[C@H](NC(=O)[C@H](Cc1ccccc1)NC(=O)[C@H](CC(=O)O)NC(=O)[C@H](CCCNC(=N)N)NC(=O)[C@H](C)NC(=O)[C@H](C)NC(=O)[C@H](CCC(N)=O)NC(=O)[C@H](CCC(=O)O)NC(=O)[C@H](CC(=O)O)NC(=O)[C@H](CC(C)C)NC(=O)[C@@H](NC(=O)[C@@H](NC(=O)[C@H](C)NC(=O)[C@H](CC(C)C)NC(=O)[C@H](CCC(=O)O)NC(=O)[C@H](CO)NC(=O)[C@@H](NC(=O)[C@H](Cc1ccccc1)NC(=O)[C@@H](NC(=O)CNC(=O)[C@H](CCC(=O)O)NC(=O)C(C)(C)NC(=O)[C@@H](N)Cc1c[nH]cn1)[C@@H](C)O)[C@@H](C)O)[C@@H](C)O)[C@@H](C)CC)C(=O)N[C@@H](CC(N)=O)C(=O)N[C@@H](Cc1c[nH]c2ccccc12)C(=O)N[C@@H](CC(C)C)C(=O)N[C@@H](CCCCN)C(=O)N[C@@H](C)C(=O)N[C@@H](Cc1c[nH]cn1)C(=O)N[C@@H](CCCCN)C(=O)N[C@H](C(=O)N[C@H](C(=O)N[C@@H](CC(=O)O)C(=O)O)[C@@H](C)O)[C@@H](C)CC) [Compound 35]	0.006	0.048
